Reference: US20240409617A1 (published 2024)

B1: Ab 23 (Fc fusion)
VH: EVQLVQSGAEVKKPGSSVKVSCRSSGGTFSTYGITWVRQAPGQGLEWMGRIIPSLGIPNYAQKFQGRVTITADTSVSTAWMELSSLESDDTAIYYCARENIDLATNDFWGQGTLVTVSS
VL: QSALTQPPSASGSPGQSVTISCTGTSRDIGAYGYVSWYQQVPGKAPKLIIYEVRNRPSGVSSRFSGSKSGNTASLTISGLQAEDEADYYCSSYTSSSTLDVVFGGGTKLTVL
B2: Ab 17 (scFv, V domains shown)
VH: QVQLVQSGGGVVQPGRSLRLSCAASGFTFDDYAMHWVRQVPGKGLEWVSGIDWNSGVIGYADSVKGRFTISRDNVKNSLYLQMNSLRTEDSALYYCAKDIGPGGSGSYYAFDIWGQGTTVTVSS
VL: QSALTQPASVSGSPGQSITISCTGTSSDVGGSKYVSWYQQHPGKAPKVMIYDVTKRPSGVPDRFSGSKSGNTASLTISGLQAEDEADYYCAAWDDSLNGVVFGGGTKLTVL
B3: Ab 21 (scFv, V domains shown)
VH: QVQLVQSGGGLVQPGGSLRLSCATSGFTFDDYAMHWVRQAPGKGLEWVSGISWNSGSIGYVDSVKGRFTISRDNRNNKVYLQMNNLRAEDTAVYYCARDWWGSIDHWGLGTLVTVSS
VL: QSALTQPRSVSGSPGQSVTISCTGTSSDVGGYDYVSWYQQHPGKAPKLIIYDVSKRPSGVPDRFSGSKSGNTASLTVSGLQAEDEADYYCSSYTSSSPVVFGGGTKLTVL
B4: Ab 16 (scFv, V domains shown)
VH: QVQLVQSGGGVVQPGRSLRLSCAASGFTFSNYGMHWVRQAPGKGLEWVALIWERGSKKDYADSVKGRFTVSRDNSKNTLYLQMNSLRPEDTAVYFCAREGISMTGAEYFQHWGQGTLVTVSS
VL: QSVLTQPPSVSGSPGQRVTMSCTGSSSNIGAGYDVHWYQQVPGAAPRLLIYGTNNRPSGVPDRFSGSKSGTSASLTITGLQAEDEADYYCQSYDNSLTDPYVFGTGTKVTVL
B5: Ab 18 (scFv, V domains shown)
VH: EVQLVQSGGGVVQPGRSLRVSCAASGFSFSRYGMHWVRQAPGKGLEWVAFIRHDGSKKYYADSVEGRFTISRDNSRNTVSLEMNSLRGEDTAVYYCAKDGRLEAALDDWGQGTLVTVSS
VL: NFMLTQPHSMSGSAGKTVTVSCIRSSGSIANNFVQWYQQRPGSAPTTVIYEDNQRPSGVPDRFSGSIDSSSNSASLTISGLKTEDEADYYCQSYDSSNLVFGGGTRLTVL
B6: Ab 25 (Fc fusion)
VH: QVQLVQSGGGLVQPGGSLRLSCAASGFTFSSYWMSWVRQAPGKGLEWVANIKQDGSEKYYVDSVKGRFTISRDNAKNSLYLQMNSLRAEDTAVYYCARGFYYYGAFDIWGQGTTVTVSS
VL: NFMLTQPHSVSESPGKTVTISCTGSSGSIASNYVQWYQQRPGSAPTTVIYEDNQRPSGVPDRFSGSIGSSSNSASLTISGLKTEDEADYYCQSYDSSNHWVFGGGTKLTVL
B7: Ab 13 (scFv, V domains shown)
VH: QVTLKESGPKLVKPTQTLTLTCTFSGFSLSTSGVGVGWIRQPPGKALEWLALIYWDDDKRYSPSLKSRLTIAKDTSKYQVVLTMTNMDPVDTATYYCARISGSGYFYPFDIWGQGTMVTVSA
VL: NFMLTQPHSVSESPGKTVTISCTRSSGSIASNYVQWYQQRPGSAPTTVIYEDNQRPSGVPDRFSGSIDSSSNSASLTISGLKTEDEADYYCQSYDSSNLWVFGGGTKLTVL
B8: Ab 20 (scFv, V domains shown)
VH: QVQLVQSGGGSVKPGGSLRLSCAASGYRLSDYYMHWVRQAPGKGLEWVANIKQDGSEKYYVDSVKGRFTISRDNAKNSLYLQMNSLRAEDTAVYYCARVRGWSRGYFDYWGQGTLVTVSS
VL: NFMLTQPHSVSESPGKTVTISCTGSSGSIASNYVQWYQQRPGSAPTTVIYEDNQRPSGVPDRFSGSIDSSSNSASLLISGLKTEDEADYYCQSYDSSNHWVFGGGTKLTVL
B9: Ab 15 (Fc fusion)
VH: QVQLVQSGGGLVKPGRSLRLSCTASGFTFGDYAMSWFRQAPGKGLEWVGFIRSKAYGGTTGYAASVKGRFTISRDDSKSIAYLQMNSLKTEDTAVYYCTTADDDMDVWGKGTTVTVSS
VL: NFMLTQPHSVSESPGKTVTISCTRSSGTIASNYVQWYQQRPGSAPTTVIYEDNQRPSGVPDRFSGSIDRSSNSASLTISGLTPDDEADYYCQSYDTSNHYVFGTGTKVTVL
B10: Ab 27 (Fc fusion)
VH: QVQLVQSGTEVKKPGASVKVSCKASGYSFTGSHLHWVRQAPGQGLEWMGWINPDSGVINYAQKFQGRVTLTRDTSISTAYMELSGLRSDDTAVYYCARDKAIGYVWALDYWGQGTLVTVSS
VL: QSALTQPPSVSGSPGQSVTISCTGTSSDVGTYNRVSWYQQPPGKAPKLMIYEVSNRPSGVSNRFSGSKSGNTASLTISGLQAEDEADYYCSSYTRTFTYVFGTGTKVTVL

The binders below were run against RBD-biotin (assay: BLI).

For B1, which Kd is on record?
The Kd was less than 0.001 nM.

Which Kd does the source give for B2 here?
Its Kd is 0.882 nM.

Which Kd does the source give for B3 here?
The Kd was 1.48 nM.

B4 was tested. Which Kd did it give?
Its Kd is 0.959 nM.

B5 was tested. Which Kd did it give?
Its Kd is 2.31 nM.

For B6, which Kd is on record?
The Kd was 0.223 nM.

With B7 as the binder, how does the Kd read?
Its Kd is 0.922 nM.

B8 was tested. Which Kd did it give?
The Kd was 1.9 nM.

With B9 as the binder, how does the Kd read?
Its Kd is 6.61 nM.

For B10, which Kd is on record?
Its Kd is 0.906 nM.
